Measured values from US20200199576.

T1: kinase MAPK3, P27361
T1 chain: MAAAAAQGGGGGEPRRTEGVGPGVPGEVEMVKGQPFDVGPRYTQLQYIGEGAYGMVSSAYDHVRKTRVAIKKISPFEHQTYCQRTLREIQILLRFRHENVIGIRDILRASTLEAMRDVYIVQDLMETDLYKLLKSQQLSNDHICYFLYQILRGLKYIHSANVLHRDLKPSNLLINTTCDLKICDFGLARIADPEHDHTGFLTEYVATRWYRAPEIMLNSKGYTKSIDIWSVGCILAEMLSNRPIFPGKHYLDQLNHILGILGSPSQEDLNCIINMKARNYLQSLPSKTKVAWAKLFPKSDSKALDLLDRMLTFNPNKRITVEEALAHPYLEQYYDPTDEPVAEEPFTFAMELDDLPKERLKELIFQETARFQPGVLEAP

T2: β-catenin, P35222
T2 chain: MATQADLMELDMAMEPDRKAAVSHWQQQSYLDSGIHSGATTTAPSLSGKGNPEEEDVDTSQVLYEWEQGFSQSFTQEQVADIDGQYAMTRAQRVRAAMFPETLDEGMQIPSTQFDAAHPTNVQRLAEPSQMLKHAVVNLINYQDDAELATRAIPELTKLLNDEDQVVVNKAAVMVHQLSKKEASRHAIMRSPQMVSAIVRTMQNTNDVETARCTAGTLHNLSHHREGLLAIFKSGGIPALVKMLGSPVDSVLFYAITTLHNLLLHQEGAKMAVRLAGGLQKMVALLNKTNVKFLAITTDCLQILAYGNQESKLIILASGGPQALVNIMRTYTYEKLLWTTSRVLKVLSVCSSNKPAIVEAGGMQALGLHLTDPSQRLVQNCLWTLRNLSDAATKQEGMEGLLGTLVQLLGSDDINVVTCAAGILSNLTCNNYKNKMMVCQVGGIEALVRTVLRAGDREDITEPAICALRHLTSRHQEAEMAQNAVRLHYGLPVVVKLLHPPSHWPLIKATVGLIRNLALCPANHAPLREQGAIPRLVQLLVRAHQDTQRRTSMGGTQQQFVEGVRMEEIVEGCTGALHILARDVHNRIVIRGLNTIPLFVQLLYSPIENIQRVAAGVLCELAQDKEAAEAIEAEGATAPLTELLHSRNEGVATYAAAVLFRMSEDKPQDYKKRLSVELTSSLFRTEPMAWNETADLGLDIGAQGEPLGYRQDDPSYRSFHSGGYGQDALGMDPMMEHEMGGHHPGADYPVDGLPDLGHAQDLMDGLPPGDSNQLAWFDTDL

T3: CDK4, P11802
T3 chain: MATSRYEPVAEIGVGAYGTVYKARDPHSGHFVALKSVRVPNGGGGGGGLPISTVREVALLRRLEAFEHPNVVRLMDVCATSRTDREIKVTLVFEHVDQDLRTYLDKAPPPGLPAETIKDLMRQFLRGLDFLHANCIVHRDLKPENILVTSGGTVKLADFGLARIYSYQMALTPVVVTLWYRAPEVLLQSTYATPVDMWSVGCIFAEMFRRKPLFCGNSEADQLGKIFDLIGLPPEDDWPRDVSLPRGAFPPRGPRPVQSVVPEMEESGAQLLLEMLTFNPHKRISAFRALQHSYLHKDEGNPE

T4: FAS-associated factor UbxD8, Q96CS3
T4 chain: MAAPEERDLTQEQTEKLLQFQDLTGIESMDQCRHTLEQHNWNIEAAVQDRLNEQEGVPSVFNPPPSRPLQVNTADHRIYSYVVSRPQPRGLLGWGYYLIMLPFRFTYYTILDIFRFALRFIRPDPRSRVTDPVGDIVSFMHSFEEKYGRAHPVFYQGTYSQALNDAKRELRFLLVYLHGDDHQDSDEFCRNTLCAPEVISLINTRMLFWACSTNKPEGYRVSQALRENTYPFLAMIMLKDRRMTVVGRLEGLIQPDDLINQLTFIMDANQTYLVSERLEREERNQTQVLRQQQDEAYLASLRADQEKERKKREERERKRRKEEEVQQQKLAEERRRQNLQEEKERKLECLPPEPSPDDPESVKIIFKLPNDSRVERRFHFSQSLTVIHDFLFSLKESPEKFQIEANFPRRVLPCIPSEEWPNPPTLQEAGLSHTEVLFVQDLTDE

T5: UV excision repair protein HHR23A (RAD23A), P54725
T5 chain: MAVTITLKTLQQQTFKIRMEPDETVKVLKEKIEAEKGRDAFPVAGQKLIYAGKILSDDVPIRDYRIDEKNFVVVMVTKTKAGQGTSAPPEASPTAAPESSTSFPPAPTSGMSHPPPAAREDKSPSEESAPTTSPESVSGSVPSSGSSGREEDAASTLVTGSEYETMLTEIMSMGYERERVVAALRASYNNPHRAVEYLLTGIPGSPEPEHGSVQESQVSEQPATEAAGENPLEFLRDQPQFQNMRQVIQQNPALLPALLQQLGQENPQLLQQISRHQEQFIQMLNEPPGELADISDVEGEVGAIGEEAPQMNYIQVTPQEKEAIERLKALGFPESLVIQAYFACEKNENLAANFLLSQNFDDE

B1: wt CHIP (full-length) (protein)
chain: MKGKEEKEGGARLGAGGGSPEKSPSAQELKEQGNRLFVGRKYPEAAACYGRAIMQQHEQALADCRRALELDGQSVKAHFFLGQCQLEMESYDEAIANLQRAYSLAKEQRLNFGDDIPSALRIAKKKRWNSIEERRIHQESELHSYLSRLIAAERERELEECQRNHEGDEDDSHVRAQQACIEAKHDKYMADMDELFSQVDEKRKKRDIPDYLCGKISFELMREPCITPSGITYDRKDIEEHLQRVGHFDPVTRSPLTQEQLIPNLAMKEVIDAFISENGWVEDY
B2: wt E6AP (full-length) (protein)
chain: MKRAAAKHLIERYYHQLTEGCGNEACTNEFCASCPTFLRMDNNAAAIKALELYKINAKLCDPHPSKKGASSAYLENSKGAPNNSCSEIKMNKKGARIDFKDVTYLTEEKVYEILELCREREDYSPLIRVIGRVFSSAEALVQSFRKVKQHTKEELKSLQAKDEDKDEDEKEKAACSAAAMEEDSEASSSRIGDSSQGDNNLQKLGPDDVSVDIDAIRRVYTRLLSNEKIETAFLNALVYLSPNVECDLTYHNVYSRDPNYLNLFIIVMENRNLHSPEYLEMALPLFCKAMSKLPLAAQGKLIRLWSKYNADQIRRMMETFQQLITYKVISNEFNSRNLVNDDDAIVAASKCLKMVYYANVVGGEVDTNHNEEDDEEPIPESSELTLQELLGEERRNKKGPRVDPLETELGVKTLDCRKPLIPFEEFINEPLNEVLEMDKDYTFFKVETENKFSFMTCPFILNAVTKNLGLYYDNRIRMYSERRITVLYSLVQGQQLNPYLRLKVRRDHIIDDALVRLEMIAMENPADLKKQLYVEFEGEQGVDEGGVSKEFFQLVVEEIFNPDIGMFTYDESTKLFWFNPSSFETEGQFTLIGIVLGLAIYNNCILDVHFPMVVYRKLMGKKGTFRDLGDSHPVLYQSLKDLLEYEGNVEDDMMITFQISQTDLFGNPMMYDLKENGDKIPITNENRKEFVNLYSDYILNKSVEKQFKAFRRGFHMVTNESPLKYLFRPEEIELLICGSRNLDFQALEETTEYDGGYTRDSVLIREFWEIVHSFTDEQKRLFLQFTTGTDRAPVGGLGKLKMIIAKNGPDTERLPTSHTCFNVLLLPEYSSKEKLKERLLKAITYAKGFGML

How the values were obtained:
kinase MAPK3, P27361 = target: T1, kinase MAPK3, P27361
β-catenin, P35222 = target: T2, β-catenin, P35222
[1] = target: phosphatase PPP3CA, Q08209
[2] = target: protein arginine methyl transferase PRMT1, Q99873
protein arginine methyl transferase PRMT1, Q99873, sequence (Q99873 whole entry, looked up): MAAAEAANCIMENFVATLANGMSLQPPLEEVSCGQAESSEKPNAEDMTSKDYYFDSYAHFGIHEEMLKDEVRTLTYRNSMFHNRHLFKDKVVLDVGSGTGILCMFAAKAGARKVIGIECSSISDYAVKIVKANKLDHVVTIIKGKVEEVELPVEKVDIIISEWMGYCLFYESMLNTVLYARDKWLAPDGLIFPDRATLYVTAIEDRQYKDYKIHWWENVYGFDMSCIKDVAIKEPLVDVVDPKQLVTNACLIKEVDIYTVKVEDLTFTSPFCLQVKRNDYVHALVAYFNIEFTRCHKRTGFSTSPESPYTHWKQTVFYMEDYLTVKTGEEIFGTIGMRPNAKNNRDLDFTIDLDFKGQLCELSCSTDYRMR

CDK4, P11802 = target: T3, CDK4, P11802
[3] = target: protein Arg methyltransferase 5 (PRMT5), O14744
protein Arg methyltransferase 5 (PRMT5), O14744, sequence (O14744 whole entry): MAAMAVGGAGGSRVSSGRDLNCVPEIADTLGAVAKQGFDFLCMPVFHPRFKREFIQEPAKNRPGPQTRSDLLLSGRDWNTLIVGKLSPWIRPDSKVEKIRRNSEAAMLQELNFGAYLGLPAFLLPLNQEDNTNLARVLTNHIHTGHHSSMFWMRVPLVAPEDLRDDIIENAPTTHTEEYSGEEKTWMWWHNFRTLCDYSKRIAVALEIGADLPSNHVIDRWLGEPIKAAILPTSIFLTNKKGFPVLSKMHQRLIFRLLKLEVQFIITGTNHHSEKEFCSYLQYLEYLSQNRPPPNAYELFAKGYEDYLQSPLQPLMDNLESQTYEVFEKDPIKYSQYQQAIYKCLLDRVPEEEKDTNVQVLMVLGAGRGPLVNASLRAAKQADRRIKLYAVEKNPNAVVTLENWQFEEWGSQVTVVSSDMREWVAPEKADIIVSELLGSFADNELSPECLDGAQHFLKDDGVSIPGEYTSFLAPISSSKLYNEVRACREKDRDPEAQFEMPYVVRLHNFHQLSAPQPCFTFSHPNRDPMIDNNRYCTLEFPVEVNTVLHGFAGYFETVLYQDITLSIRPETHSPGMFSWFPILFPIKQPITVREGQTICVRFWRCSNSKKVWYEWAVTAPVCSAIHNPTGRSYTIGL

[4] = target: T4, FAS-associated factor UbxD8, Q96CS3
[5] = target: T5, UV excision repair protein HHR23A …

p53, P04637, sequence (P04637 whole entry, looked up): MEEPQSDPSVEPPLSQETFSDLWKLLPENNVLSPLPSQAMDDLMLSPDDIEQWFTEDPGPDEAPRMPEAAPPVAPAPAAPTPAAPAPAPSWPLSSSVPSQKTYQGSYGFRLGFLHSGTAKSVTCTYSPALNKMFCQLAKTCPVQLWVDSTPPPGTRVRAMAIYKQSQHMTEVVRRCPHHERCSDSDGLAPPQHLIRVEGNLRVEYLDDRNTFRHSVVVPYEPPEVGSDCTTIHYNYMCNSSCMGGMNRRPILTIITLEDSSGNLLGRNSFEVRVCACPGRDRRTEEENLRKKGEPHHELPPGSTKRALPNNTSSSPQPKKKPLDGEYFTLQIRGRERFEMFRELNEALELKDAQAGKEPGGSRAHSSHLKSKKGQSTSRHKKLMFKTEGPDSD
MAPK1, P28482, sequence (P28482 whole entry): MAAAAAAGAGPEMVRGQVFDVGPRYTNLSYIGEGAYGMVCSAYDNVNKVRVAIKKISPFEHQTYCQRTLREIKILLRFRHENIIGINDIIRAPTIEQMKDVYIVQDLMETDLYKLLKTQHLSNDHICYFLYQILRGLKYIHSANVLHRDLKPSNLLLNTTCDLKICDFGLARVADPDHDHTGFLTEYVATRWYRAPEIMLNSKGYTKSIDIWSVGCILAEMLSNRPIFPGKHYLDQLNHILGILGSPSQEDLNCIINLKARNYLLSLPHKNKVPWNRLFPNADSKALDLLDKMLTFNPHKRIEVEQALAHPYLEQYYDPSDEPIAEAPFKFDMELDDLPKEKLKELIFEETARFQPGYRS
CDK1, P06493, sequence (P06493 whole entry, looked up): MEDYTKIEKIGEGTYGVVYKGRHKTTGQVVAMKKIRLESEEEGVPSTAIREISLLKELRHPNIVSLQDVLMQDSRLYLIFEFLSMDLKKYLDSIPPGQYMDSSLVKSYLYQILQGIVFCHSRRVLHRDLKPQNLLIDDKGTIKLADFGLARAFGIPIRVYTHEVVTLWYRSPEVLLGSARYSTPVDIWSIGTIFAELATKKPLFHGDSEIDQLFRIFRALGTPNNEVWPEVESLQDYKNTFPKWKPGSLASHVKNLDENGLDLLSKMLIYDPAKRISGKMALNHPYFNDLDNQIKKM

Row | Protein | in vitro substrate ubiquitination with wt UB through wt Uba1-UbcH5b-CHIP, Western blot (kinase MAPK3, P27361) | in vitro substrate ubiquitination with wt UB through wt Uba1-UbcH5b-CHIP, Western blot (β-catenin, P35222) | in vitro substrate ubiquitination with wt UB through wt Uba1-UbcH5b-CHIP, Western blot [1] | p53 ubiquitination with wt UB, Western blot (p53, P04637) | in vitro substrate ubiquitination with wt UB through wt Uba1-UbcH5b-CHIP, Western blot [2] | in vitro substrate ubiquitination with wt UB through wt Uba1-UbcH5b-CHIP, Western blot (CDK4, P11802) | in vitro substrate ubiquitination with wt UB through Uba1-UbcH7-E6AP, Western blot [3] | in vitro substrate ubiquitination with wt UB through Uba1-UbcH7-E6AP, Western blot (β-catenin, P35222) | in vitro substrate ubiquitination with wt UB through Uba1-UbcH7-E6AP, Western blot [4] | full-length E6AP auto-ubiquitination with wt UB, Western blot (wt UbcH7 (human E2)) | p53 ubiquitination in the presence of E6, Western blot (p53, P04637) | in vitro substrate ubiquitination with wt UB through Uba1-UbcH7-E6AP, Western blot (CDK1, P06493) | in vitro substrate ubiquitination with wt UB through Uba1-UbcH7-E6AP, Western blot (MAPK1, P28482) | in vitro substrate ubiquitination with wt UB through Uba1-UbcH7-E6AP, Western blot [5] | in vitro substrate ubiquitination with wt UB through Uba1-UbcH7-E6AP, Western blot (CDK4, P11802)
1 | B1 | CHIP could poly-ubiquitinate MAPK3, β-catenin and CDK4 | CHIP could poly-ubiquitinate MAPK3, β-catenin and CDK4 | CHIP ubiquitination of PRMT1 and PPP3CA generated mono-ubiquitinated species | p53 modification by wt UB going through the wt Uba1-UbcH5b-CHIP cascade | CHIP ubiquitination of PRMT1 and PPP3CA generated mono-ubiquitinated species | CHIP could poly-ubiquitinate MAPK3, β-catenin and CDK4 | – | – | – | – | – | – | – | – | –
2 | B2 | – | – | – | – | – | – | MAPK1, PRMTS, and UbxD8 mainly generated species with one or two conjugated UBs | CDK1, CDK4 and β-catenin were strongly ubiquitinated by E6AP with the formation of high molecular weight bands | MAPK1, PRMTS, and UbxD8 mainly generated species with one or two conjugated UBs | wt E6AP can be auto-ubiquitinated by the wt Uba1-UbcH7 pair | p53 can be efficiently ubiquitinated by wt UB through the wt Uba1-UbcH7-E6AP cascade in the presence of E6 | CDK1, CDK4 and β-catenin were strongly ubiquitinated by E6AP with the formation of high molecular weight bands | MAPK1, PRMTS, and UbxD8 mainly generated species with one or two conjugated UBs | E6AP-catalyzed ubiquitination of HHR23A, a previously identified E6AP substrate, was confirmed | CDK1, CDK4 and β-catenin were strongly ubiquitinated by E6AP with the formation of high molecular weight bands
